Where two headings read alike, the source gives them in different places.
What was measured:
[1] = target: Actin filaments (F-actin) from rabbit skeletal muscle (rabbit) (UniProt P68135)
[2] = target: Actin filaments (F-actin) from rabbit skeletal muscle (rabbit) (UniProt P68135); remark: listed apart in the source
[3] = target: Actin filaments (F-actin) from rabbit skeletal muscle (rabbit) (UniProt P68135); remark: listed apart in the source

Myosin 5c subfragment 1 (Myo5c-S1, 1-785 amino acids), sequence (Q9NQX4 1-785): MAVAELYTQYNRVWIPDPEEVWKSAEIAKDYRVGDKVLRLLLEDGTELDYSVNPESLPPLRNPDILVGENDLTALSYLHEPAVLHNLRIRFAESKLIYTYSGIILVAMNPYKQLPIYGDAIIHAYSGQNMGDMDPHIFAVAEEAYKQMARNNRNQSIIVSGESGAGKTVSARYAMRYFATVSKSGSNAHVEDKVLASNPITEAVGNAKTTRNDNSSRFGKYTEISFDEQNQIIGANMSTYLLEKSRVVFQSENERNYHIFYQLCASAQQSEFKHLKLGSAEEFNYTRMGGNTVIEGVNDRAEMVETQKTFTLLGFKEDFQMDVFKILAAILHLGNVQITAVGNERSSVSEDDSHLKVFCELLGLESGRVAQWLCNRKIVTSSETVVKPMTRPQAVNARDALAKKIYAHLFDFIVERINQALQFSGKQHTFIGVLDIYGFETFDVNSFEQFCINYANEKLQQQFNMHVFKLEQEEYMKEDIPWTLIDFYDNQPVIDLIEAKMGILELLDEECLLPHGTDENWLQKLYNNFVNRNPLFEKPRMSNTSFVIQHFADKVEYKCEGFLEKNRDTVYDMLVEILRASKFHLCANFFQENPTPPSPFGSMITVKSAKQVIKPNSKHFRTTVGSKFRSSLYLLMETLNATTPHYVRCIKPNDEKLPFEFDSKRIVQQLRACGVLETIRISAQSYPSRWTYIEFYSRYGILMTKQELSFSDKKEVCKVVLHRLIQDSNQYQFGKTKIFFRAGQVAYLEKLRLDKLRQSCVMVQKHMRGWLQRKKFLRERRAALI

Q: Which half-maximum value (Kact) of the phosphate dissociation rate against F-actin concentration (MDCC-PBP, double-mixing stopped flow) [1] does the source give for “Myosin 5c subfragment 1 (Myo5c-S1, 1-785 amino acids) (from UniProt Q9NQX4 1-785) (domain or fragment)” here?
A: 14.6 µM

Q: What about the K (ATPase) of the steady-state actin-activated ATPase (NADH-coupled assay) [2] of the same substance?
A: 26 µM

Q: What about the K (ATPase) of the steady-state actin-activated ATPase (NADH-coupled assay) [3] of the same substance?
A: 35 µM

Source: PMC4014986
